Test results: article PMC3242593, “Influence of glioma tumour microenvironment on the transport of ANG1005 via low-density lipoprotein receptor-related protein 1” (British Journal of Cancer, 2011)

System: U87 human glioblastoma cells
Assay: [125I]-Angiopep-2 or [125I]-ANG1005 uptake assay in U87 cells (LRP1-mediated endocytosis)
Type: cell-based
Conditions: unlabelled Angiopep-2 50 μM or preincubated RAP 1 μM, percentage of control, quadruplicate
Description: In brief, beads were washed twice with 3 ml of PBS on a Whatman filter and resuspended in 60 μl of PBS. Na^125I (1 mCi) from GE Healthcare (Baie d’Urfé, QC, Canada) was added to the bead suspension for 5 min at room temperature. Iodination was initiated by adding 100 μg of peptide (80–100 μl) diluted in 0.1 M phosphate buffer solution, pH 6.5.
In-vitro silencing of LRP1 was carried out by standard methodologies ([Song et al, 2009]). The sequences of oligonucleotides were […]tt (sense) and […]tt (antisense). Human U87 glioblastoma cells were grown to 50% confluence and were transfected with LRP1 silencing RNA (siRNA) using Lipofectamine 2000 (Life Technologies Corporation, Carlsbad, CA, USA) according to the manufacturer's specifications. After 48 h of transfection, cells were used for subsequent assays. Expression of proteins was assessed by western blot analysis.
Cells were incubated in medium in which the sodium bicarbonate had been replaced with Ringer/HEPES buffer (150 mM NaCl, 5.2 mM KCl, 2.2. mM CaCl2, 0.2 mM MgCl2·6H2O, 6 mM NaHCO3, 2.8 mM glucose, and 5 mM HEPES). […]
Cells were seeded in a 24-well plate (5 × 10^4 cells per well) in appropriate media and fed for 3 days. […] Results were quantified with a Wizard 1470 Gamma counter (Perkin-Elmer, Woodbridge, ON, Canada). […]

B1: RAP: receptor-associated protein, a known LRP1 ligand that competitively inhibits uptake of Angiopep-2 (protein, UniProt P30533 35-357, looked up)
Alpha-2-macroglobulin …: YSREKNQPKPSPKRESGEEFRMEKLNQLWEKAQRLHLPPVRLAELHADLKIQERDELAWKKLKLDGLDEDGEKEARLIRNLNVILAKYGLDGKKDARQVTSNSLSGTQEDGLDDPRLEKLWHKAKTSGKFSGEELDKLWREFLHHKEKVHEYNVLLETLSRTEEIHENVISPSDLSDIKGSVLHSRHTELKEKLRSINQGLDRLRRVSHQGYSTEAEFEEPRVIDLWDLAQSANLTDKELEAFREELKHFEAKIEKHNHYQKQLEIAHEKLRHAESVGDGERVSRSREKHALLEGRTKELGYTVKKHLQDLSGRISRARHNEL
- effect of unlabelled competitor on uptake of [125I]-Angiopep-2 (500 nM): inhibited
